In publication PMC5988983:

B1: γ-RSD (γ-resorcylate decarboxylase) (Polaromonas sp. JS666) (protein)
chain: MNGKIALEEHFATEETLMDSAGFVPDKDWPELRSRLLDIQDRRVRLMDEHGIETMILSLNAPAVQAIADSTRANETARRANDFLAEQVAKQPTRFRGFAALPMQDPELAARELERCVKELGFVGALVNGFSQDNRSAVPLYYDMAQYWPFWETVQALDVPFYLHPRNPLPSDARIYDGHAWLLGPTWAFGQETAVHALRLMGSGLFDKYPALKIILGHMGEGLPYSMWRIDHRNAWIKTTPKYPAKRKIVDYFNENFYLTTSGNFRTQTLIDAILEIGADRILFSTDWPFENIDHAADWFENTSISEADRKKIGWGNAQNLFKLNR

Key:
[1] = molecular target: γ-Resorcylate decarboxylase (γ-RSD) from Polaromonas sp. JS666, His6-tagged (Polaromonas sp. JS666); assay: crystal structure
purified protein [2] = substrate: Cc1cc(O)c(C(=O)O)c(O)c1; assay: purified protein; format: biochemical, Polaromonas sp. JS666; conditions: 50 mM HEPES pH 7.0, 30 °C
purified protein [3] = substrate: O=C(O)c1c(O)cc(O)cc1O; assay: purified protein; format: biochemical, Polaromonas sp. JS666; conditions: 50 mM HEPES pH 7.0, 30 °C
purified protein [4] = substrate: O=C(O)c1c(O)cccc1O; assay: purified protein; format: biochemical, Polaromonas sp. JS666; conditions: 50 mM HEPES pH 7.0, 30 °C
purified protein [5] = substrate: O=C(O)c1cccc(O)c1O; assay: purified protein; format: biochemical, Polaromonas sp. JS666; conditions: 50 mM HEPES pH 7.0, 30 °C

Molecule | stoichiometry N [1] | Km (purified protein [2]) [µM] | kcat (purified protein [2]) [s⁻¹] | kcat/Km (purified protein [2]) [M⁻¹ s⁻¹] | Km (purified protein [3]) [µM] | kcat (purified protein [3]) [s⁻¹] | kcat/Km (purified protein [3]) [M⁻¹ s⁻¹] | Km (purified protein [4]) [µM] | kcat (purified protein [4]) [s⁻¹] | kcat/Km (purified protein [4]) [M⁻¹ s⁻¹] | Km (purified protein [5]) [µM] | kcat (purified protein [5]) [s⁻¹] | kcat/Km (purified protein [5]) [M⁻¹ s⁻¹]
γ-Resorcylate decarboxylase (γ-RSD) from Polaromonas sp. JS666, His6-tagged (enzyme) | 4 | – | – | – | – | – | – | – | – | – | – | – | –
B1 | – | 79 ± 6 | 0.38 ± 0.01 | 4800 ± 400 | 48 ± 1 | 0.18 ± 0.01 | 3800 ± 300 | 32 ± 2 | 0.44 ± 0.01 | 13000 ± 1000 | 111 ± 11 | 0.47 ± 0.02 | 4200 ± 500
